Assay results published in patent publication US20190077860A1 (EISAI R AND D MANAGEMENT, published 2019).
Numbering of substitutions follows the chain as printed.

T1: human EphA6 extracellular region-SEAP-His protein (human, UniProt Q9UF33 23-550)
T1 construct: extracellular domain; also called hEphA6-SEAP-His
T1 sequence (looked up): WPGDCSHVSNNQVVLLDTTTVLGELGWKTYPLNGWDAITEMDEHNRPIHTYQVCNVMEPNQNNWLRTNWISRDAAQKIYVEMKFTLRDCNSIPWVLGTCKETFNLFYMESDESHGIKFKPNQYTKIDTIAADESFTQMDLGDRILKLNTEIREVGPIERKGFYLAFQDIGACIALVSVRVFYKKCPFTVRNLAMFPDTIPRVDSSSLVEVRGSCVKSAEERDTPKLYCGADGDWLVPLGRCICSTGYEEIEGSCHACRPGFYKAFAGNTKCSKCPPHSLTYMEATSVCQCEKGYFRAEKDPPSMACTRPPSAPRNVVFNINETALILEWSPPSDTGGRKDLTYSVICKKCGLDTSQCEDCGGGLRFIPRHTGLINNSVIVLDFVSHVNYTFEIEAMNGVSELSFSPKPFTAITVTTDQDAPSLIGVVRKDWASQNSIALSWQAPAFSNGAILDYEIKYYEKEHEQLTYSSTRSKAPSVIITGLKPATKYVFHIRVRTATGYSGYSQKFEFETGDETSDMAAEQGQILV

T2: human EphA7 extracellular region-SEAP-His protein (human, UniProt Q15375 28-555)
T2 construct: extracellular domain; also called hEphA7-SEAP-His
T2 sequence (looked up): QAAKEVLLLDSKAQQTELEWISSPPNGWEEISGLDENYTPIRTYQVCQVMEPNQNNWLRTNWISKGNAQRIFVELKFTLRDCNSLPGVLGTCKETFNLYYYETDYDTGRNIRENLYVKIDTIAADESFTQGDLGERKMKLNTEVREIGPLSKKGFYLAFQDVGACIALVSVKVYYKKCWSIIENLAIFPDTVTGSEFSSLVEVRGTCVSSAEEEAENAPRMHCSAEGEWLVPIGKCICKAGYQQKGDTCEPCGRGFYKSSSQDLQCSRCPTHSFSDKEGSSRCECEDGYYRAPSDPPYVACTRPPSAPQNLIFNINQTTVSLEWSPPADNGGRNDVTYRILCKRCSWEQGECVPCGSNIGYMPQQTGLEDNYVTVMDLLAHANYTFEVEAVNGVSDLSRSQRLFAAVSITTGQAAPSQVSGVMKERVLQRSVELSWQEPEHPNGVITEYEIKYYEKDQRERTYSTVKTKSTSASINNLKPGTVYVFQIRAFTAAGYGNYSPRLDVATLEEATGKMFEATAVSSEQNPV

T3: human EphB1 extracellular region-SEAP-His protein (human, UniProt P54762 18-540)
T3 construct: extracellular domain; also called hEphB1-SEAP-His
T3 sequence (looked up): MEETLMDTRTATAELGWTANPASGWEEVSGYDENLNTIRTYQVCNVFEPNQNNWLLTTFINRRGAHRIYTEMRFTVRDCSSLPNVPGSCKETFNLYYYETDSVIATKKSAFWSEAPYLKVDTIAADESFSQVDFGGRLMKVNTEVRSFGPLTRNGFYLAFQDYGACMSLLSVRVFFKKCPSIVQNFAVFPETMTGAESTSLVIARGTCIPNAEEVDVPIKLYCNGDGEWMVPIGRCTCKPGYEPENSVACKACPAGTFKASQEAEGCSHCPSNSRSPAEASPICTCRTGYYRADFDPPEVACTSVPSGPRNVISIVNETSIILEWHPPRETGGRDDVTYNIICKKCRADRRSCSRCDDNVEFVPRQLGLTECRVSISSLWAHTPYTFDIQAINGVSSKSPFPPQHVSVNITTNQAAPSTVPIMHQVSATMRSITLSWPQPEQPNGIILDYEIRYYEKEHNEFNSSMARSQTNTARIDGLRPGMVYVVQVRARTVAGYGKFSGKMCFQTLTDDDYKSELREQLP

T4: human EphB2 extracellular region-SEAP-His protein (human, UniProt P29323 19-543)
T4 construct: extracellular domain; also called hEphB2-SEAP-His
T4 sequence (looked up): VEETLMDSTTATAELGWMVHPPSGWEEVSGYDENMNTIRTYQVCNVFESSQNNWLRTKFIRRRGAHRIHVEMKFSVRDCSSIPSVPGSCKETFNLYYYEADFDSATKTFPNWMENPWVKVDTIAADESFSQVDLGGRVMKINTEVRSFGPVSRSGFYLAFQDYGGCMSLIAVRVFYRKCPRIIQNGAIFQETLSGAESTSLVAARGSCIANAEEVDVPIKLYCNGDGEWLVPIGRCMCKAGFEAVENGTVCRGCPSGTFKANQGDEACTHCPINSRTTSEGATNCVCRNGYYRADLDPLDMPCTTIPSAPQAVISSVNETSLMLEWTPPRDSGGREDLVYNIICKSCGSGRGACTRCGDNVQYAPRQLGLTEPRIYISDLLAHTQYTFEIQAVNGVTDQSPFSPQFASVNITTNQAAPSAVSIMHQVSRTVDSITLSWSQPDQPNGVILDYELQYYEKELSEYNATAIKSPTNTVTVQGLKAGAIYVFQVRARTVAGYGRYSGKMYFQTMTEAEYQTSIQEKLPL

B1: humanized antibody No. 141 (antibody, human IgG2)
heavy: QVQLVQSGSELKKPGASVKVSCKASGYTFTDYSMHWVRQAPGQGLEWMGWINTETGEPTYADDFKGRFVFSLDTSVSTAYLQISSLKAEDTAVYYCARIPLYYYGSRYWYFDVWGQGTTVTVSSASTKGPSVFPLAPSSRSTSESTAALGCLVKDYFPEPVTVSWNSGALTSGVHTFPAVLQSSGLYSLSSVVTVPSSNFGTQTYTCNVDHKPSNTKVDKTVERKSCVECPPCPAPPAAAPSVFLFPPKPKDTLMISRTPEVTCVVVDVSHEDPEVQFNWYVDGVEVHNAKTKPREEQFNSTFRVVSVLTVVHQDWLNGKEYKCKVSNKGLPAPIEKTISKTKGQPREPQVYTLPPSREEMTKNQVSLTCLVKGFYPSDIAVEWESNGQPENNYKTTPPMLDSDGSFFLYSKLTVDKSRWQQGNVFSCSVMHEALHNHYTQKSLSLSPG
light: DIQMTQSPSSLSASVGDRVTITCRASENIYRNLAWYQQKPGKAPKLLVYAATNLADGVPSRFSGSGSGTDYTLTISSLQPEDFATYYCQHFWGTPWTFGQGTKVEIKRTVAAPSVFIFPPSDEQLKSGTASVVCLLNNFYPREAKVQWKVDNALQSGNSQESVTEQDSKDSTYSLSSTLTLSKADYEKHKVYACEVTHQGLSSPVTKSFNRGEC
notes: human Ig kappa; also called L1-4/HK1
B2: humanized antibody No. 134 (antibody, human IgG2)
heavy: B1 heavy with E46K, D62Q, D63G, K65T
light: EIVMTQSPATLSVSPGERATLSCRASENIYRNLAWYQQKPGQSPRLLIYAATNLADGIPARFSGSGSGTEYTLTISSLQSEDFAVYYCQHFWGTPWTFGQGTKVEIKRTVAAPSVFIFPPSDEQLKSGTASVVCLLNNFYPREAKVQWKVDNALQSGNSQESVTEQDSKDSTYSLSSTLTLSKADYEKHKVYACEVTHQGLSSPVTKSFNRGEC
notes: human Ig kappa; also called L2-4/HA2
B3: humanized antibody No. 152 (antibody, human IgG2)
heavy: B1 heavy with D62Q, D63G, K65T
light: B1 light with V48L, P80S
notes: human Ig kappa; also called L1-5/HA1
B4: humanized antibody No. 158 (antibody, human IgG2)
heavy: B1 heavy with E46K, D62Q, D63G, K65T
light: B1 light with K45Q, V48L
notes: human Ig kappa; also called L1-6/HA2
B5: humanized antibody No. 156 (antibody, human IgG2)
heavy: B1 heavy with V2I, E46K, D62Q, D63G, K65T
light: B1 light with K45Q, V48L
notes: human Ig kappa; also called L1-6/HA4
B6: humanized antibody No. 153 (antibody, human IgG2)
heavy: B1 heavy with E46K, D62Q, D63G, K65T
light: B1 light with V48L, P80S
notes: human Ig kappa; also called L1-5/HA2
B7: humanized antibody No. 142 (antibody, human IgG2)
heavy: B1 heavy with E46K
light: B1 light
notes: human Ig kappa; also called L1-4/HK2
B8: humanized antibody No. 159 (antibody, human IgG2)
heavy: B1 heavy with E46K
light: B1 light with K45Q, V48L
notes: human Ig kappa; also called L1-6/HK2
B9: humanized antibody No. 157 (antibody, human IgG2)
heavy: B1 heavy with D62Q, D63G, K65T
light: B1 light with K45Q, V48L
notes: human Ig kappa; also called L1-6/HA1
B10: humanized antibody No. 143 (antibody, human IgG2)
heavy: B1 heavy with V2I, E46K
light: B1 light
notes: human Ig kappa; also called L1-4/HK4
B11: humanized antibody No. 145 (antibody, human IgG2)
heavy: B1 heavy with E46K
light: B1 light with V48L, P80S
notes: human Ig kappa; also called L1-5/HK2
B12: humanized antibody No. 151 (antibody, human IgG2)
heavy: B1 heavy with V2I, E46K, D62Q, D63G, K65T
light: B1 light with V48L, P80S
notes: human Ig kappa; also called L1-5/HA4
B13: humanized antibody No. 154 (antibody, human IgG2)
heavy: B1 heavy
light: B1 light with V48L, P80S
notes: human Ig kappa; also called L1-5/HK1
B14: humanized antibody No. 132 (antibody, human IgG2)
heavy: B1 heavy with V2I, E46K, D62Q, D63G, K65T
light: B2 light
notes: human Ig kappa; also called L2-4/HA4
B15: humanized antibody No. 160 (antibody, human IgG2)
heavy: B1 heavy with V2I, E46K
light: B1 light with K45Q, V48L
notes: human Ig kappa; also called L1-6/HK4
B16: humanized antibody No. 155 (antibody, human IgG2)
heavy: B1 heavy with V2I, E46K
light: B1 light with V48L, P80S
notes: human Ig kappa; also called L1-5/HK4
B17: humanized antibody No. 144 (antibody, human IgG2)
heavy: B1 heavy
light: B1 light with K45Q, V48L
notes: human Ig kappa; also called L1-6/HK1

How the values were obtained:
Assay in all cases: ELISA
[1] = molecular target: T1, human EphA6 extracellular …
[2] = molecular target: T2, human EphA7 extracellular …
[3] = molecular target: T3, human EphB1 extracellular …
[4] = molecular target: T4, human EphB2 extracellular …

| Binder | A450 as % of hEphA4-SEAP-His [1] [%] | A450 as % of hEphA4-SEAP-His [2] [%] | A450 as % of hEphA4-SEAP-His [3] [%] | A450 as % of hEphA4-SEAP-His [4] [%] |
| --- | --- | --- | --- | --- |
| B1 | 9 | 5.3 | 5.4 | 5.2 |
| B2 | 9.6 | 5.1 | 5.1 | 5.1 |
| B3 | 8.3 | 5.7 | 5.9 | 5.8 |
| B4 | 10 | 6.3 | 6.2 | 6.3 |
| B5 | 8.9 | 5.6 | 5.4 | 5.5 |
| B6 | 8.7 | 6.2 | 6 | 5.9 |
| B7 | 9.7 | 5.5 | 5.6 | 5.6 |
| B8 | 7.6 | 5.5 | 5.3 | 5.4 |
| B9 | 9 | 6 | 6.1 | 6.2 |
| B10 | 9.9 | 5.8 | 5.9 | 5.8 |
| B11 | 8.6 | 6.3 | 6.5 | 6.7 |
| B12 | 9.9 | 6.8 | 6.8 | 7 |
| B13 | 8.4 | 6.3 | 6.3 | 6.2 |
| B14 | 9.7 | 4.5 | 4.8 | 4.7 |
| B15 | 8.7 | 6.1 | 6.1 | 6.2 |
| B16 | 7.2 | 5.6 | 5.4 | 5.5 |
| B17 | 8.1 | 5.6 | 5.7 | 5.7 |
